Among the data in publication doi:10.1101/2025.09.19.677352 are SPR response, maximum response against concentration-matched ap SC wt and maximum response values, retold here.

Test [1] concerns the target ap JFcα (mallard duck IgA heavy chain Cα2-Cα3-Cα4-Tp co-expressed with joining chain) (Anas platyrhynchos (mallard duck)). Briefly: SPR.
Test [2] addresses mm JFcα (mouse IgA heavy chain and joining chain) (Mus musculus (house mouse)). As to the kind of experiment: SPR. (In general: Surface plasmon resonance follows binding to a sensor surface in real time, without labels.)

“mm SC D1-D3-D4-D5 (mouse SC with D2 deletion) (from UniProt O70570 19-585) (domain or fragment)” registered an SPR response in test [1] of 1 RU.
Same read-out and setting: as for “mm SC D1 (mouse SC D1 only) (domain or fragment)”, the figure is 7 RU.
On the same count and under the same terms, as for “hs SC D1 (human SC D1 only) (domain or fragment)”, the figure is 29 RU.
Consider “ap SC D1_(ΔN-ext.)-D2-D3-D4 (mallard duck SC without the SC N-terminal extension) (domain or fragment)”, for which the maximum response against concentration-matched ap SC wt in test [1] stood at 20 % lower.
Take “mm SC D1_((+)N-ext.) (mouse SC D1 with the mallard duck SC N-terminal extension)”: the maximum response at 64 nM against the non-chimeric variant in test [2] amounted to 93 % higher.
Consider “hs SC D1-D3-D4-D5 (human SC with D2 deletion) (from UniProt P01833 19-638) (domain or fragment)”, for which the SPR response in test [1] came to 34 RU.
